Consider six molecules from patent publication US20070031415A1 (published 2007).

Where a chain is given by its changes, count along the chain named.

The chains are these.
B1: human p30 (RAPL), wild type (other)
chain: MTVDSSMSSGYCSLDEELEDCFFTAKTTFFRNAQSKHLSKNVCKPVEETQRPPTLQEIKQKIDSYNTREKNCLGMKLSEDGTYTGFIKVHLKLRRPVTVPAGIRPQSIYDAIKEVNLAATTDKRTSFYLPLDAIKQLHISSTTTVSEVIQGLLKKFMVVDNPQKFALFKRIHKDGQVLFQKLSIADRPLYLRLLAGPDTEVLSFVLKENETGEVEWDAFSIPELQNFLTILEKEEQDKIQQVQKKYDKFRQKLEEALRESQGKPG
notes: also called hp30; wild type p30
B2: p30RBDm (RBD-domain mutant of p30) (other)
chain: B1 chain with K123A, R124A, K135A, K154A, K155A, D160A, N161A
B3: Rap1V12 E37G (enzyme)
chain: MREYKLVVLGSVGVGKSALTVQFVQGIFVEKYDPTIGDSYRKQVEVDCQQCMLEILDTAGTEQFTAMRDLYMKNGQGFALVYSITAQSTFNDLQDLREQILRVKDTEDVPMILVGNKCDLEDERVVGKEQGQNLARQWCNCAFLESSAKSKINVNEIFYDLVRQINRKTPVEKKKPKKKSCLLL
notes: Point mutation in the effector region of the active Rap1V12
B4: Rap1V12 T35E (enzyme)
chain: B3 chain with T35E, G37E
notes: as for B3
B5: Rap1V12 Y40C (enzyme)
chain: B3 chain with G37E, Y40C
notes: as for B3
B6: Rap1V12 D38E (enzyme)
chain: B3 chain with G37E, D38E
notes: as for B3

Assay [1] concerns the target Rap1 (of the BAF cells, in chemokine-stimulated migration). As to the kind of experiment: cell-based or functional assay.
The target of assay [2] is T1, Rap1V12 (Rap1-activated mutant) (human, UniProt P62834 1-184, limits assumed).
T1 construct: also called active Rap1V12
T1 chain: B3 chain with G37E
Description: yeast two-hybrid screen, Rap1V12 as bait. An excerpt: To identify a molecule that associates with Rap1, the human leukocyte cDNA library was screened by a yeast two-hybrid method using a Rap1-activated mutant Rap1V12 as bait. As a result, a molecule that encodes a protein of a molecular weight of 30,000 having a Ras/Rap binding domain (RBD) was isolated and termed as p30 (FIG. 1). […] It was found from an analysis of the human genome database that p30 is an alternative splicing product of Norel. Mouse p30 cDNA was also isolated by a RT-PCR method.

Another assay concerns the target T2, GTP-Rap1 (human, UniProt P62833 1-184 (bovine entry), limits assumed).
T2 sequence: B3 chain with V12G, G37E
As to the kind of experiment: binding to GTP-Rap1, assay not detailed.

The target of assay [3] is B1. As to the kind of experiment: association of Rap1V12 point mutants with p30, assay not detailed.

With B1, in assay [1], the “cell migration on ICAM-1 in the presence of SDF-1 (CXCL12) (20 nM)” value was roughly 2 fold. Further, in assay [2], the binding result is given as “binds”.
Take B2: in the assay with GTP-Rap1, the binding result is listed as “no binding”.
Take B3: the binding result in assay [3] is recorded as “binds”.
Still for that read-out and setting: the same measure for B4: “no binding”; for B5: “no binding”; for B6: “no binding”.
